Laboratory results as given in patent publication US20180362629A1 (ZOETIS BELGIUM S A, published 2018).
Positions count from the first letter of the chain named. “And” between values parts separate entries of the source, which are not always exact repeats. Identical values can stand only once.

B1: PR-1254977 (antibody, mouse IgG1, V domains shown)
VH: EVQLQQSGAELVKPGASVKLSCTASGFNIKDTYIYWVKQRPEQGLEWIGRIDPANGNTIYASKFQGKASITADTSSNTAYMQLSSLTSGDTAVYYCAGYGYYAYWGQGTTLTVSS
VL: DVVLTQTPLSLPVNIGDQASISCKSTKSLLNGDGFTYLDWYLQKPGQSPQLLIYLVSNRFSGVPDRFSGSGSGTDFTLKISRVEAEDLGVYYCFESNYLFTFGSGTKLEMKR
notes: also called 21D4; ML129-21D4.4A11
B2: 23F1 hybridoma supernatant (antibody, mouse IgG1, V domains shown)
VH: B1 VH with S69T
VL: B1 VL
notes: Tested as supernatant of the hybridoma before subcloning; mouse IgG1 kappa; also called ML129-23F1.4G3
B3: 21D4 hybridoma supernatant (antibody, mouse IgG1, V domains shown)
VH: B1 VH
VL: B1 VL
notes: Tested as supernatant of the hybridoma before subcloning; mouse IgG1 kappa; also called ML129-21D4.4A11
B4: PR-1254972 (antibody, mouse IgG2b, V domains shown)
VH: EVHLVESGGGLVKPGGFLILSCAASGFTFSDYYMFWIRQTPGKRLEWVATISDGGSYTYYTDNVKGRFTISRDNVKNNLYLQMSHLKSADTAMYYCARDWSDSEGFAYWGQGTLVTVSA
VL: DVLMTQTPLSLPVSLGDQASISCRSSQSIVQSNGNTYLEWYLQKPGQSPKLLIYKVSNRFSGVPDRFSGSGSGTDFTLKISRVEAEDLGVYYCFQGSHVPFTFGSGTKLEIKR
notes: also called 20B10; ML129-20B10.3F4
B5: 20B10 hybridoma supernatant (antibody, mouse IgG2b, V domains shown)
VH: B4 VH
VL: B4 VL
notes: Tested as supernatant of the hybridoma before subcloning; mouse IgG2b kappa; also called ML129-20B10.3F4
B6: 14A9 hybridoma supernatant (antibody, mouse IgG1, V domains shown)
VH: EVQLVESGGGAVKPGGSLTLSCAASGFTFSNHYMYWVRQTPEKRLEWVASISDGGAYTFYPDTVKGRFTISRDNVNNNLYLQMRHLKSEDTAMYYCTREESANNGFAFWGQGTLVTVSA
VL: B4 VL with V30L, Q31H, K50N, K55R, S97A
notes: Tested as supernatant of the hybridoma before subcloning; mouse IgG1 kappa; also called ML130-14A9.5B12
B7: PR-1254973 (antibody, mouse IgG2b, V domains shown)
VH: QVQLQQPGAELVKPGASVKLSCKASGYTFTNYWMHWVKQRPGQGLEWIGRIDPYGGGTKHNEKFKRKATVTADKSSSTAYILLSSLTSEDSAVYYCTRSGYDYYFDVWGTGTTVTVSS
VL: DIQMTQSPASLSASVGETVTVTCRASENIYSFLAWHQQKQGKSPQLLVYNANTLAEGVPSRFSGSGSGTQFSLKINSLQPEDFGSYYCQHHFGTPFTFGSGTKLEIKR
notes: also called 2B12; ML129-2B12.5G9
B8: 3F7 hybridoma supernatant (antibody, mouse IgG1, V domains shown)
VH: QVQLKESGPGLVAPSQSLSITCTVSGFSLTGYNINWVRQPPGKGLEWLGMIWGYGDTDYNSALKSRLSISKDNSKSQVFLKMNSLQTDDTARYYCARDHYGGNDWYFDVWGTGTTVTVSS
VL: DIQMTQTTSSLSASLGDRVTITCRASQDITNYLNWYQQKPDGTVKLLIYYTSRLHSGVPSRFSGSGSGTDYSLTISNLDQEDIATYFCQQGKTLPRTFGGGTKLEIKR
notes: Tested as supernatant of the hybridoma before subcloning; mouse IgG1 kappa; also called ML130-3F7.4A8

Assays:
human β NGF [1] = biological target: T1, human β NGF (human, UniProt P01138 122-241, biotinylated in the TrkA inhibition ELISA (sites not given)); assay: TrkA inhibition ELISA; biotin-hNGF bound to rat TrkA/Fc; supernatant 25-fold
T1 sequence (P01138 122-241 limits assumed): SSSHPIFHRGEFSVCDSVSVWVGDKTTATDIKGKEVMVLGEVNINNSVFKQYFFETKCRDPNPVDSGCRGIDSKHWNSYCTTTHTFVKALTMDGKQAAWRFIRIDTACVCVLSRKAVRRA
Experimental: (§1) The plates were washed three times with PBS/Tween. The plates were blocked with 200 μl/well of 2% milk in PBS for 1 hour at room temperature. The plates were washed three times as above. Rat TrkA/Fc chimera (R&D Systems, catalog #1056-TK) was added at 1 μg/ml (50 μl/well) in PBS/0.1% BSA and then incubated for 1 hour at room temperature. Biotinylated human NGF was titered and pre-incubated with anti-NGF antibody supernatants diluted 1-fold, 5-fold, and 25-fold, or purified anti-NGF mAbs diluted to 0.08, 0.4, 2, or 10 μg/ml for 1 hour at room temperature on a plate shaker. The negative control was unrelated conditioned supernatant. The positive control was sera from a mouse immunized with NGF. The plates were washed and then 50 μl of each biotinylated NGF/Ab mix was added to the appropriate wells. The plates were incubated for 1 hour at room temperature. The plates were washed. […] The plates were incubated for 30 min at room temperature. The plates were washed. 50 μl of TMB (Invitrogen, cat #00-2023) was added and the reaction was stopped using 2N H₂SO₄ (VWR, cat # BDH3500-1). The absorbance at 450 nm was read on a Spectromax 2E plate reader (Molecular Devices), and the absorbance readings are shown in Table 5 The numerical value indicates binding of biotinylated human β NGF to rat TrkA/Fc chimera.

human β NGF [2] = biological target: T1, human β NGF; assay: TrkA inhibition ELISA; biotin-hNGF bound to rat TrkA/Fc; supernatant 1-fold
Experimental: as §1

human β NGF [3] = biological target: T1, human β NGF; assay: TrkA inhibition ELISA; biotin-hNGF bound to rat TrkA/Fc; supernatant 5-fold
Experimental: as §1

recombinant canine β NGF [4] = biological target: T2, recombinant canine β NGF (canine, UniProt Q29074 110-229 (pig entry)); assay: direct ELISA, canine NGF coated at 1 µg/ml, mAb at 10 µg/ml
T2 construct: also called canine NGF
T2 chain: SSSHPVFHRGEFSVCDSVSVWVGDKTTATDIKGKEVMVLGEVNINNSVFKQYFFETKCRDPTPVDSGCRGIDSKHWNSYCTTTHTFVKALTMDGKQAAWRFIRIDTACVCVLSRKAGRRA
Experimental: (§2) To determine if purified mouse anti-NGF mAbs bind to canine β NGF, ELISA plates were coated with 50 μl/well of canine NGF (Abbott Laboratories) at 1 μg/ml in PBS and incubated over night at 4° C. The plates were washed three times with PBS+Tween buffer. The plates were blocked with 200 μl/well of 2% milk in PBS for 1 hour at room temperature. The plates were washed three times as above. Purified antibodies were diluted to 0.4, 2, or 10 μg/ml. 50 μl of each concentration of purified antibody was added to the plates. The plates were incubated for 1 hour at room temperature. The plates were washed. 50 μl of a 5000-fold diluted goat anti-mouse IgG Fc-HRP (Thermo, catalog #31439) was added. The plates were incubated for 1 hour at room temperature. 50 μl of TMB (Invitrogen, catalog #00-2023) was added and the reaction was stopped using 2N H₂SO₄ (VWR, catalog # BDH3500-1). The absorbance at 450 nm was read on a Spectromax 2E plate reader (Molecular Devices). The results are shown in Table 9, and the numerical value indicates binding of mouse anti-NGF antibodies to canine β NGF.

recombinant canine β NGF [5] = biological target: T2, recombinant canine β NGF; assay: cell-based or functional assay
recombinant canine β NGF [6] = biological target: T2, recombinant canine β NGF; assay: SPR (Biacore), mAb captured on goat anti-mouse IgG Fc, canine NGF injected; Expt 1
Experimental: (§3) A biomolecular protein interaction analysis was used to evaluate the binding kinetics of the interaction between the purified anti-NGF hybridoma antibodies and recombinant canine β NGF. The antibodies were captured using a goat anti-mouse IgG FC (10000 RU) surface which was directly immobilized to a CM5 chip using an amine coupling procedure according to the manufacturer's instructions (Biacore). A sample size of 5 μl of antibody at a concentration of 1 μg/ml was captured at 10 μl minute. Recombinant canine NGF was used as the antigen. Canine NGF was injected at 75 μl/min (concentration range: 5-0.039 nM) for mouse antibodies. The association rate was monitored for 3.3 minutes and the dissociation rate was monitored for 10 minutes. Aliquots of canine NGF were also simultaneously injected over a reference reaction CM surface to record any nonspecific binding background. The instrument sensitivity for on-rate is I×IO⁷, such that any on-rate that is faster than I×IO⁷ may not be accurately measured; the instrument sensitivity for off-rate is […], such that any off-rate that is slower than 1×10⁻⁶ may not be accurately measured. Therefore, an on-rate that is faster than 1×10⁷ is recorded as >1×10⁷ and an off-rate that is slower than 1×10⁻⁶ is recorded as <1×10⁻⁶.

recombinant canine β NGF [7] = biological target: T2, recombinant canine β NGF; assay: cell-based or functional assay
recombinant canine β NGF [8] = biological target: T2, recombinant canine β NGF; assay: SPR (Biacore), mAb captured on goat anti-mouse IgG Fc, canine NGF injected; Average
Experimental: as §3

recombinant canine β NGF [9] = biological target: T2, recombinant canine β NGF; assay: SPR (Biacore), mAb captured on goat anti-mouse IgG Fc, canine NGF injected; Expt 2
Experimental: as §3

recombinant canine β NGF [10] = biological target: T2, recombinant canine β NGF; assay: direct ELISA, canine NGF coated at 1 µg/ml, mAb at 2 µg/ml
Experimental: as §2

recombinant canine β NGF [11] = biological target: T2, recombinant canine β NGF; assay: direct ELISA, canine NGF coated at 1 µg/ml, mAb at 0.4 µg/ml
Experimental: as §2

Row | Molecule | absorbance at 450 nm (human β NGF [1]) | absorbance at 450 nm (human β NGF [2]) | absorbance at 450 nm (human β NGF [3]) | absorbance at 450 nm (recombinant canine β NGF [4]) [A450] | IC50, canine NGF-induced TF-1 cell proliferation (70 pM canine NGF) (recombinant canine β NGF [5]) | Kd (recombinant canine β NGF [6]) [pM] | koff (recombinant canine β NGF [6]) [s⁻¹] | kon (recombinant canine β NGF [6]) [M⁻¹ s⁻¹] | PathHunter IC50 (441 pM canine NGF) (recombinant canine β NGF [7]) [nM] | SureFire pERK IC50 (128 pM canine β NGF) (recombinant canine β NGF [7]) | Kd (recombinant canine β NGF [8]) [pM] | koff (recombinant canine β NGF [8]) [s⁻¹] | kon (recombinant canine β NGF [8]) [M⁻¹ s⁻¹] | Kd (recombinant canine β NGF [9]) [pM] | koff (recombinant canine β NGF [9]) [s⁻¹] | kon (recombinant canine β NGF [9]) [M⁻¹ s⁻¹] | absorbance at 450 nm (recombinant canine β NGF [10]) [A450] | absorbance at 450 nm (recombinant canine β NGF [11]) [A450]
1 | unrelated conditioned supernatant (negative control) | 0.462 OD450 and 0.318 OD450 and 0.386 OD450 | 0.465 OD450 and 0.372 OD450 and 0.386 OD450 | 0.456 OD450 and 0.336 OD450 and 0.388 OD450 | – | – | – | – | – | – | – | – | – | – | – | – | – | – | –
2 | B1 | – | – | – | 0.552 | 0.217 nM | < 13.9 | 0.000139 | > 1e+07 | 0.181 | 17.6 pM | < 15 | 0.00015 | > 1e+07 | < 16 | 0.00016 | > 1e+07 | 0.414 | 0.223
3 | B2 | 0.276 OD450 | 0.108 OD450 | 0.14 OD450 | – | – | – | – | – | – | – | – | – | – | – | – | – | – | –
4 | B3 | 0.404 OD450 | 0.133 OD450 | 0.242 OD450 | – | – | – | – | – | – | – | – | – | – | – | – | – | – | –
5 | B4 | – | – | – | 0.154 | 0.303 nM | < 314 | 0.00314 | > 1e+07 | 0.313 | 0.228 nM | < 318 | 0.00318 | > 1e+07 | < 321 | 0.00321 | > 1e+07 | 0.091 | 0.071
6 | B5 | 0.289 OD450 | 0.166 OD450 | 0.2 OD450 | – | – | – | – | – | – | – | – | – | – | – | – | – | – | –
7 | B6 | 0.376 OD450 | 0.121 OD450 | 0.208 OD450 | – | – | – | – | – | – | – | – | – | – | – | – | – | – | –
8 | B7 | – | – | – | 0.905 | 39 pM | < 12.1 | 0.000121 | > 1e+07 | 0.143 | 18.8 pM | < 13 | 0.00013 | > 1e+07 | < 13.8 | 0.000138 | > 1e+07 | 0.836 | 0.769
9 | B8 | 0.149 OD450 | 0.056 OD450 | 0.083 OD450 | – | – | – | – | – | – | – | – | – | – | – | – | – | – | –
